In one data set the target is T1, FoxLOX (Fusarium oxysporum, UniProt A0A0J9UTC2).
T1 construct: gene FOXG_04807; full-length ORF, 744 residues, in pET28a with N-terminal hexa-His tag (removal not mentioned); E. coli Bl21star; non-heme iron; iron-ligand residues His-408, His-413, His-595, Asp-599, Ile-744
T1 sequence (A0A0J9UTC2 1-744): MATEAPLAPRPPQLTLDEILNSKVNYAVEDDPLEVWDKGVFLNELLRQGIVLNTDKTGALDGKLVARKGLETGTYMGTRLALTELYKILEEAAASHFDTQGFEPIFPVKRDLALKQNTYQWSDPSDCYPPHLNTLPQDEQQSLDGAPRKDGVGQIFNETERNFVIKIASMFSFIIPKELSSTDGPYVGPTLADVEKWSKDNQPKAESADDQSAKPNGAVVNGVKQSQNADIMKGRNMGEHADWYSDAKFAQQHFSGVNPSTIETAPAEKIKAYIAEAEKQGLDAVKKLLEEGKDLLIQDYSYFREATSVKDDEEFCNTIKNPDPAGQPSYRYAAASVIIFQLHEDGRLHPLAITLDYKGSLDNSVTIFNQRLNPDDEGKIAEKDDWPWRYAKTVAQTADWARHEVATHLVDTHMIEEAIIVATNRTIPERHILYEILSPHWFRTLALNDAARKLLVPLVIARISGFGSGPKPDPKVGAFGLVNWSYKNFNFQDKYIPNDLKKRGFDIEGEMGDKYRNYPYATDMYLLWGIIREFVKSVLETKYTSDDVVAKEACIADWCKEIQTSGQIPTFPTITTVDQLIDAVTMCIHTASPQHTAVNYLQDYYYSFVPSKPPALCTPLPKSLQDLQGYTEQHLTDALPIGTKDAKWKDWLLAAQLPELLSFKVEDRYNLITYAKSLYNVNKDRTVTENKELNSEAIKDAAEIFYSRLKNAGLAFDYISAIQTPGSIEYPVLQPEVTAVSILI
The data set can be described thus: initial rate of conjugated diene formation at […] nm, Michaelis-Menten fit. The data set is classed as biochemical. Conditions: 50 mM Tris/HCl pH 8.0, room temperature, air-equilibrated, fatty acid sodium salt.

Data set [1] deals with FoxLOX (Fusarium oxysporum lipoxygenase, iron 13S-lipoxygenase) (Fusarium oxysporum f. sp. lycopersici strain 4287). The data set can be described thus: SEC; S200pg 26/60 column; 50 mM Tris/HCl pH 8.0, 10% glycerol, 125 mM NaCl; affinity-purified FoxLOX; apparent mass about 173 kDa against about 80 kDa by SDS-PAGE and 83.5 kDa theoretical.
Substrate in the data set “purified protein”: CCCCC/C=C\C/C=C\C/C=C\C/C=C\CCCC(=O)O
Nature of the data set: purified protein. The class given is biochemical, Fusarium oxysporum. The settings on record: 50 mM Tris/HCl pH 8.0, room temperature, air-equilibrated, fatty acid sodium salt.

Take `CCCCC/C=C\C/C=C\CCCCCCCC(=O)O` [18∶2(n-6)]: the Km on FoxLOX is 6.89 ± 0.79 µM. Consider “FoxLOX (Fusarium oxysporum lipoxygenase, iron 13S-lipoxygenase) (enzyme)”, for which the stoichiometry N in data set [1] came to 2. With `CCCCC/C=C\C/C=C\C/C=C\CCCCC(=O)O` [18∶3(n-6)], the Km at FoxLOX was 34.8 ± 5.38 µM. Still for that read-out and setting: next, `CC/C=C\C/C=C\C/C=C\CCCCCCCC(=O)O` [18∶3(n-3)]: 31.7 ± 3.79 µM.

B1: FoxLOX (Fusarium oxysporum f. sp. lycopersici 4287) (protein)
chain: T1 sequence (A0A0J9UTC2 1-744)
notes: full-length ORF, 744 residues, in pET28a with N-terminal hexa-His tag (removal not mentioned); E. coli Bl21star; non-heme iron; iron-ligand residues His-408, His-413, His-595, Asp-599, Ile-744
Regarding B1, in “purified protein”, the Km was 3.37 ± 0.55 µM, the catalytic constant (kcat) came out at 1.71 ± 0.0632 s⁻¹ and the kcat/Km came to 507000 M⁻¹ s⁻¹.

Values taken from publication PMC3669278, “An Iron 13S-Lipoxygenase with an α-Linolenic Acid Specific Hydroperoxidase Activity from Fusarium oxysporum” (PLoS ONE, 2013).
